Source: patent US20220177594A1
Residue numbers refer to the chain shown, from its start.

B1: FEL_09E09_1.1 (antibody)
heavy: DVQLVESGGDLVKPGGSLRLTCVASGFTYSSYAMSWVRQAPGKGLQWVAYISSGGDYIYYADTVKGRFTISRDNAKNTLYLQMNSLKTEDTATYYCVRDPITGTFAYWGQGTLVTVSSASTTAPSVFPLAPSCGTTSGATVALACLVLGYFPEPVTVSWNSGALTSGVHTFPAVLQASGLYSLSSMVTVPSSRWLSDTFTCNVAHPPSNTKVDKTVRKTDHPPGPKPCDCPKCPPPEAAGAPSIFIFPPKPKDTLSISRTPEVTCLVVDLGPDDSDVQITWFVDNTQVYTAKTSPREEQFNSTYRVVSVLPILHQDWLKGKEFKCKVNSKSLPSPIERTISKAKGQPHEPQVYVLPPAQEELSRNKVSVTCLIKSFHPPDIAVEWEITGQPEPENNYRTTPPQLDSDGTYFVYSKLSVDRSHWQRGNTYTCSVSHEALHSHHTQKSLTQSPGK
light: EIQMTQSPSSLSASPGDRVTITCRASQDINNYLNWYQQKPGKVPKLLIYYTSTLHSGVPSRFSGSGSGTDFTLTISSLEPEDAATYYCQQGNTLPWTFGQGTRSDAQPSVFLFQPSLDELHTGSASIVCILNDFYPKEVNVKWKVDGVVQNKGIQESTTEQNSKDSTYSLSSTLTMSSTEYQSHEKFSCEVTHKSLASTLVKSFQRSECQRE
B2: FEL_10F07_1.2 (antibody)
heavy: B1 heavy with I58F
light: DITMTQSPGSLAGSPGQQVTMNCRASQDITNYLNWYQQKPGQHPKLLIYYTSTLHSGVPDRFSGSGSGTDFTLTISNLQAEDVASYYCQQGHMLPWTFGQGTRSDAQPSVFLFQPSLDELHTGSASIVCILNDFYPKEVNVKWKVDGVVQNKGIQESTTEQNSKDSTYSLSSTLTMSSTEYQSHEKFSCEVTHKSLASTLVKSFQRSECQRE
B3: FEL_10F07_2.1 (antibody)
heavy: B1 heavy with Y29F, I58F, N74D, N84S, V97T, R98G
light: B1 light with N30T, N92H, T93M
B4: CAN_09E09_1.2 (antibody)
heavy: EVQLVESGGDLVKPGGSLRLSCVASGFTFSSYAMSWVRQAPGKGLQWVAYISSGGDYIYYADTVKGRFTISRDNAKNTLYLQMNSLRAEDTAMYYCVRDPITGTFAYWGQGTLVTVSSASTTAPSVFPLAPSCGSTSGSTVALACLVSGYFPEPVTVSWNSGSLTSGVHTFPSVLQSSGLYSLSSMVTVPSSRWPSETFTCNVAHPASKTKVDKPVPKRENGRVPRPPDCPKCPAPEMLGGPSVFIFPPKPKDTLLIARTPEVTCVVVDLDPEDPEVQISWFVDGKQMQTAKTQPREEQFNGTYRVVSVLPIGHQDWLKGKQFTCKVNNKALPSPIERTISKARGQAHQPSVYVLPPSREELSKNTVSLTCLIKDFFPPDIDVEWQSNGQQEPESKYRTTPPQLDEDGSYFLYSKLSVDKSRWQRGDTFICAVMHEALHNHYTQESLSHSPGK
light: DIVLTQPTSVSGSLGQRVTISCRASQDINNYLNWYQQLPGKAPKLLVYYTSTLHSGVPDRFSGSNSGSSATLTITGLQAEDEADYYCQQGNTLPWTFGQGTRNDAQPAVYLFQPSPDQLHTGSASVVCLLNSFYPKDINVKWKVDGVIQDTGIQESVTEQDKDSTYSLSSTLTMSSTEYLSHELYSCEITHKSLPSTLIKSFQRSEC
B5: Mu_02D09_VH (SEQ ID NO: 31)_G33A (antibody, V domains shown)
VH: EVQLVESGGGLVKPGGSLTLSCAASGFTFSDYAMHWLRQAPEKGLEWVAYISSGSRAVFFADTVKGRFTISRDNAKNTLFLQMTSLRSDDTAMYYCARDRYDGRGFAYWGQGTLVTVSA
VL: DIVLTQSPATLSVTPGDSVSLSCRASQSISNNLHWYQQTSHESPRLLITYASQSISGIPSRFSGSGSGTDFTLSINSVETEDFGMYFCQQSNSWPLTFGAGTKLELKR
B6: Mu_02D09_VH (SEQ ID NO: 31)_D99A (antibody, V domains shown)
VH: B5 VH with A33G, D99A
VL: B5 VL
B7: Mu_02D09_VH (SEQ ID NO: 31)_Y101A (antibody, V domains shown)
VH: B5 VH with A33G, Y101A
VL: B5 VL
B8: Mu_02D09_VH (SEQ ID NO: 31)_Y50A (antibody, V domains shown)
VH: B5 VH with A33G, Y50A
VL: B5 VL
B9: Mu_02D09_VH (SEQ ID NO: 31)_R104A (antibody, V domains shown)
VH: B5 VH with A33G, R104A
VL: B5 VL
B10: Mu_02D09_VL (SEQ ID NO: 33)_W94A (antibody, V domains shown)
VH: B5 VH with A33G
VL: B5 VL with W94A
B11: Mu_02D09_VH (SEQ ID NO: 31)_S52A (antibody, V domains shown)
VH: B5 VH with A33G, S52A
VL: B5 VL
B12: Mu_02D09_VL (SEQ ID NO: 33)_L96A (antibody, V domains shown)
VH: B5 VH with A33G
VL: B5 VL with L96A
B13: Mu_02D09_VH (SEQ ID NO: 31)_D102A (antibody, V domains shown)
VH: B5 VH with A33G, D102A
VL: B5 VL
B14: Mu_02D09_VH (SEQ ID NO: 31)_D62A (antibody, V domains shown)
VH: B5 VH with A33G, D62A
VL: B5 VL
B15: Mu_02D09_VL (SEQ ID NO: 33)_I29A (antibody, V domains shown)
VH: B5 VH with A33G
VL: B5 VL with I29A
B16: Mu_02D09_VH (SEQ ID NO: 31)_H35A (antibody, V domains shown)
VH: B5 VH with A33G, H35A
VL: B5 VL
B17: Mu_09E09_VH (SEQ ID NO: 35)_S35A (antibody, V domains shown)
VH: DVKLVESGEGLVKPGGSLKLSCAASGFTFSSYAMAWVRQTPEKRLEWVAYISSGGDYIYYADTVKGRFTISRDNARNTLYLQMSSLKSEDTAMYYCTRDPITGTFAYWGQGTLVTVSA
VL: DLQMTQTTSSLSASLGDRVTISCRASQDINNYLNWYQQKPDGTVKLLIYYTSTLHSGVPSRFSGSGSGTDYSLTISNLEQEDIATYFCQQGNTLPWTFGGGTKLEIKR
B18: Mu_19F07_VH (SEQ ID NO: 47)_S56A (antibody, V domains shown)
VH: EVKLVESEGGLVQPGSSMKLSCTASGFTFSDYYMAWVRQVPEKGLEWVANINYDGASTYYLDSLKSRFIISRDNAKNILYLQMSSLKSEDTATYYCARGLTWDFDVWGTGTTVTVSS
VL: DIVMTQSHKFMSPSVGDRVSITCKASQDVDTAVAWYQQKPGQSPKLLIYLASTRHTGVPDRFTGSGSGTDFTLTISNVQSEDLADYFCQQYSRFPLTFGAGTKLELKR
B19: Mu_19F07_VH (SEQ ID NO: 47)_Y60A (antibody, V domains shown)
VH: B18 VH with A56S, Y60A
VL: B18 VL
B20: Mu_19F07_VH (SEQ ID NO: 47)_W102A (antibody, V domains shown)
VH: B18 VH with A56S, W102A
VL: B18 VL
B21: Mu_09E09_VL (SEQ ID NO: 37)_W96A (antibody, V domains shown)
VH: B17 VH with A35S
VL: B17 VL with W96A
B22: Mu_09E09_VH (SEQ ID NO: 35)_Y59A (antibody, V domains shown)
VH: B17 VH with A35S, Y59A
VL: B17 VL
B23: Mu_09E09_VH (SEQ ID NO: 35)_I101A (antibody, V domains shown)
VH: B17 VH with A35S, I101A
VL: B17 VL
B24: Mu_09E09_VL (SEQ ID NO: 37)_Q90A (antibody, V domains shown)
VH: B17 VH with A35S
VL: B17 VL with Q90A
B25: Mu_09E09_VL (SEQ ID NO: 37)_Y50A (antibody, V domains shown)
VH: B17 VH with A35S
VL: B17 VL with Y50A
B26: Mu_09E09_VL (SEQ ID NO: 37)_N92A (antibody, V domains shown)
VH: B17 VH with A35S
VL: B17 VL with N92A

The binders below were run against Feline_OSMR_hlgG1_Fc (feline) (assay: SPR Biacore).
Feline_OSMR_hlgG1_Fc (feline), sequence (chain, as listed by the source limits assumed, form in doubt): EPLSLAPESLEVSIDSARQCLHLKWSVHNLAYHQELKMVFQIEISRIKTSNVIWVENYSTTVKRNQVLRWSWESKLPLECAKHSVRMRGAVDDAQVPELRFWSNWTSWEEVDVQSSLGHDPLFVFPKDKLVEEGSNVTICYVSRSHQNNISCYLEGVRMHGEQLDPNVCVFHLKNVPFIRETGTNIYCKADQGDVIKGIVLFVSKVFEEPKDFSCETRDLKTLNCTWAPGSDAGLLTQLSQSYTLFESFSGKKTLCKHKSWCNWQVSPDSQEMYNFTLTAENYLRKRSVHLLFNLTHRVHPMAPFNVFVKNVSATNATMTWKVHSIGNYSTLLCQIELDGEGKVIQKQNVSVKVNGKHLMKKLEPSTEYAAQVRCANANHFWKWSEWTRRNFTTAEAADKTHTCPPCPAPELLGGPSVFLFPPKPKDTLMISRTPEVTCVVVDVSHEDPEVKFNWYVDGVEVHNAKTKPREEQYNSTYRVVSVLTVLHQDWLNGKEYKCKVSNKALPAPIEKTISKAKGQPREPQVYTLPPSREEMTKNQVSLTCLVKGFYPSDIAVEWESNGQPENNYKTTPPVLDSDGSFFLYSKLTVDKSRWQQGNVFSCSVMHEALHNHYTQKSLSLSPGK
With B1 the Kd was 7.73 nM, the koff was 0.000979 s⁻¹ and the kon was 127000 M⁻¹ s⁻¹.
For B2, the Kd was 4.75 nM, the koff was 0.00061 s⁻¹ and the kon was 128000 M⁻¹ s⁻¹.
B3 was tested, and the Kd was 2.2 nM, the koff was 0.00042 s⁻¹ and the kon was 191000 M⁻¹ s⁻¹.
Binder B4 has a Kd of 11 nM, a koff of 0.00184 s⁻¹ and a kon of 167000 M⁻¹ s⁻¹.
Binder B5 has a Kd of 6.13 nM, a koff of 0.0014 s⁻¹ and a kon of 229000 M⁻¹ s⁻¹.
B6 showed a Kd of 1.13 nM, a koff of 0.000463 s⁻¹ and a kon of 408000 M⁻¹ s⁻¹.
With B7 the Kd was 11.5 nM, the koff was 0.00194 s⁻¹ and the kon was 169000 M⁻¹ s⁻¹.
With B8 the Kd was 0.00119 nM, the koff was 1.2e-07 s⁻¹ and the kon was 100000 M⁻¹ s⁻¹.
Binder B9 has a Kd of 0.449 nM, a koff of 5.79e-05 s⁻¹ and a kon of 129000 M⁻¹ s⁻¹.
In the case of B10, the Kd is reported as 0.000765 nM, the koff is reported as 7.94e-08 s⁻¹ and the kon is reported as 104000 M⁻¹ s⁻¹.
With B11 the Kd was 0.736 nM, the koff was 0.000483 s⁻¹ and the kon was 656000 M⁻¹ s⁻¹.
For B12, the Kd was 0.000648 nM, the koff was 2.85e-07 s⁻¹ and the kon was 440000 M⁻¹ s⁻¹.
Binder B13 has a Kd of 13.9 nM, a koff of 0.00174 s⁻¹ and a kon of 125000 M⁻¹ s⁻¹.
With B14 the Kd was 0.00211 nM, the koff was 2.31e-07 s⁻¹ and the kon was 109000 M⁻¹ s⁻¹.
For B15, the Kd was 7.26 nM, the koff was 0.00113 s⁻¹ and the kon was 155000 M⁻¹ s⁻¹.
Binder B16 has a Kd of 8.05 nM, a koff of 0.00108 s⁻¹ and a kon of 134000 M⁻¹ s⁻¹.
B17 was tested, and the Kd was 1.37 nM, the koff was 0.00104 s⁻¹ and the kon was 756000 M⁻¹ s⁻¹.

The binders below were run against Canine_OSMR_hlgG1_Fc (canine) (assay: SPR Biacore).
Canine_OSMR_hlgG1_Fc (canine), sequence (chain, as listed by the source limits assumed, form in doubt): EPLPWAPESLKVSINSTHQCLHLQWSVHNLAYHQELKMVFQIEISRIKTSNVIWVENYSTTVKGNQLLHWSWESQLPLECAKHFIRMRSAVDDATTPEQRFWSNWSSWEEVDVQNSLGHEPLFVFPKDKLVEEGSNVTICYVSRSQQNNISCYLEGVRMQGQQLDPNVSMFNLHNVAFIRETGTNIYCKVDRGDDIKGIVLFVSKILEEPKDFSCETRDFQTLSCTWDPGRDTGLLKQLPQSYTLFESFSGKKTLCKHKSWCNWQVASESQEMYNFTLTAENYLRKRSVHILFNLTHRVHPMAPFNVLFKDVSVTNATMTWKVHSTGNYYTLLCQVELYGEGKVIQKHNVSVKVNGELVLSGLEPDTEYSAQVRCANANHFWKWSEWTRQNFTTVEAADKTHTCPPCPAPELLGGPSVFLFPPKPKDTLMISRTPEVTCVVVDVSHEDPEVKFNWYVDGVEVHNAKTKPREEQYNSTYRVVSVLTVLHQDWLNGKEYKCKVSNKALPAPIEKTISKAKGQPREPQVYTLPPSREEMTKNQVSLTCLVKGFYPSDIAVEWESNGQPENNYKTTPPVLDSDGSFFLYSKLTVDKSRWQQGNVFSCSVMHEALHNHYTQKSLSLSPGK
With B1 the Kd was 18.2 nM, the koff was 0.00105 s⁻¹ and the kon was 57500 M⁻¹ s⁻¹.
B2 showed a Kd of 13.3 nM, a koff of 0.000885 s⁻¹ and a kon of 66500 M⁻¹ s⁻¹.
B3 gave a Kd of 10 nM, a koff of 0.000851 s⁻¹ and a kon of 85000 M⁻¹ s⁻¹.
B4 gave a Kd of 37.7 nM, a koff of 0.00108 s⁻¹ and a kon of 28600 M⁻¹ s⁻¹.

What follows are binders tested against Feline_OSMR_hlgG1_Fc (feline) (assay: indirect ELISA, fOSMR coated; OD ratio to antibody expression control).
In the case of B18, the ELISA ratio is reported as 0.277 OD ratio.
B19 gave an ELISA ratio of 0.479 OD ratio.
Work on B20 yielded an ELISA ratio of 0.057 OD ratio.
For B5, the ELISA ratio was 0.158 OD ratio.
Work on B6 yielded an ELISA ratio of 0 OD ratio.
B7 was tested, and the ELISA ratio was 0.32 OD ratio.
In the case of B8, the ELISA ratio is reported as 0.009 OD ratio.
In the case of B9, the ELISA ratio is reported as 0 OD ratio.
Binder B10 has an ELISA ratio of 0 OD ratio.
For B11, the ELISA ratio was 0.001 OD ratio.
B12 gave an ELISA ratio of 1.27 OD ratio.
For B13, the ELISA ratio was 0.058 OD ratio.
With B14 the ELISA ratio was 0.01 OD ratio.
For B15, the ELISA ratio was 0.377 OD ratio.
B16 gave an ELISA ratio of 0.03 OD ratio.
In the case of B17, the ELISA ratio is reported as 1.05 OD ratio.
B21 gave an ELISA ratio of 0 OD ratio.
Work on B22 yielded an ELISA ratio of 0.011 OD ratio.
B23 showed an ELISA ratio of 0 OD ratio.
Binder B24 has an ELISA ratio of 0.183 OD ratio.
In the case of B25, the ELISA ratio is reported as 0 OD ratio.
B26 showed an ELISA ratio of 0.015 OD ratio.
